Reference: patent US20050142135A1, “Agents and methods for modulating interactions between gonadotropin hormones and receptors” (University of Kentucky Research Foundation, priority 2003, published 2005)
One block for each substance: values may come before it. *1 amine or outer side, *2 acyl side, *3 side chain or, on linkers, in order; H or OH if unused. [ ]: non-standard residue; d: D form. The star is where a group is joined. ABG = 4-azidobenzoyl glycine, attached via its N-hydroxysuccinimide ester, [N-]=[N+]=Nc1ccc(C(=O)NCC(=O)*)cc1; Tyr(125I) = radioiodinated (125I) tyrosine, O=C([C@H](Cc1ccc(O[*:3])c([125I])c1)N[*:1])[*:2]

What was measured:
[1] = tested on: FSHR; test: Inhibition of ^125I-FSH binding to the receptor on intact cells by exoloop 3 peptide; set-up: species or system human
Sequence of FSHR (P23945 18-695): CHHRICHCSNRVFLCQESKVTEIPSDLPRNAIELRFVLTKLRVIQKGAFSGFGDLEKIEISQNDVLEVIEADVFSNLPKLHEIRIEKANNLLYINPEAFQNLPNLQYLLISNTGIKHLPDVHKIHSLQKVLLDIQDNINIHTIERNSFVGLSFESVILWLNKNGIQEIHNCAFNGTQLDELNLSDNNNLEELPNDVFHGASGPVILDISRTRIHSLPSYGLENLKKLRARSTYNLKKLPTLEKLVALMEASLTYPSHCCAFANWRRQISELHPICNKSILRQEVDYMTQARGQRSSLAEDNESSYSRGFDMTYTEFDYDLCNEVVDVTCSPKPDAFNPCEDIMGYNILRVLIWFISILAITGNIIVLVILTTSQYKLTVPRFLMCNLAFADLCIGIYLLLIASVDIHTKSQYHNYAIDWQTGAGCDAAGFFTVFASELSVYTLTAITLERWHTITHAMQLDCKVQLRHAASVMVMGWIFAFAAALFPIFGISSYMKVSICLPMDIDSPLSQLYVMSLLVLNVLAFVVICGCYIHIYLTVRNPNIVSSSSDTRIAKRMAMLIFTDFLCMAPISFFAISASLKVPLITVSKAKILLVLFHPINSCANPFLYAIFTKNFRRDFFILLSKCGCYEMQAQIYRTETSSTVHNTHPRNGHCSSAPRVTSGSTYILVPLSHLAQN
Experimental: The FSH a and b subunits separated in the lower band and upper band, respectively.
Human FSH (the National Hormone and Pituitary Program) was radioiodinated as previously described for radioiodination of hCG. […] The Kd values were determined by Scatchard plots. Truncated exodomain was solubilized in Nonidet P-40 and assayed for hormone binding as described previously. For intracellular cAMP assay, cells were washed twice with Dulbecco's modified Eagle's media and incubated in the media containing isobutylmethylxanthine (0.1 mg/ml) for 15 minutes. Increasing concentrations of FSH were then added and the incubation was continued for 45 minutes at 37° C. After removing the media, the cells were rinsed once with fresh media without isobutylmethylxanthine, lysed in 70% ethanol, freeze-thawed in liquid nitrogen, and scraped. […] Exoloop 3 of FSHR was modeled based on the crystal structure of rhodopsin as a template.

[2] = target: T1, FSH (Homo sapiens, UniProt P01215+P01225); test: Photoaffinity labeling of FSH with exoloop 3 peptide (ABG-^125I-FSHR^exo3); assay type: binding; conditions: increasing concentrations of unlabeled FSHR peptides
T1 construct: purchased National Hormone and Pituitary Program
T1 sequence (P01215 25-116): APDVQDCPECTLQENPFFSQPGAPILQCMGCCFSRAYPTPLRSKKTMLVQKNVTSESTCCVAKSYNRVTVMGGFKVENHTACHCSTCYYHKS
T1 sequence (P01225 19-129): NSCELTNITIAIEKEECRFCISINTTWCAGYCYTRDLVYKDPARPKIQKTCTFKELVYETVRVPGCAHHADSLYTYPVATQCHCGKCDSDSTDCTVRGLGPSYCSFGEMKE
Experimental: A peptide mimic corresponding to the exoloop 3 sequence of K^580 […]^590 (FSHR exo3) (SEQ ID NO: 3) was synthesized, to which a Tyr residue was attached to the C-terminus for radioiodination. The N-terminus of the peptide was acetylated and the C-terminus amidated. NHS-ABG was synthesized as previously described and freshly dissolved in dimethyl sulfoxide to a concentration of 50 mM and NHS-ABG in 0.1 M sodium phosphate (pH 7.5) to a concentration of 20 mM. These reagent solutions were immediately used to derivatize receptor peptides. In the dark, 10 μl of NHS-ABG was added to […] of receptor peptides in 40 μl of 0.1 M sodium phosphate (pH 7.5). The mixture was incubated with NHS-ABG for 30 minutes at 25° C. […] After 20 sec, 7 μl of sodium metabisulfite (2.5 mg/ml) in 10 mM Na2 HPO4, pH 7.4, was introduced to terminate radioiodination.
Competitive inhibition experiments were carried out for the photoaffinity labeling experiments. 10 μl of PBS was introduced to each tube and the mixture was incubated with 10 μl of increasing concentrations of nonradioactive receptor peptides. The mixtures were incubated at 37° C. for 90 minutes in the dark, irradiated with Mineralight R-52 UV lamp for 3 minutes as previously described, and solubilized in 2% SDS, 100 mM dithiothreitol and 8 M urea. The samples were electrophoresed on 8-12% polyacrylamide gradient gels. […]

[3] = target: T2, hCG (Homo sapiens, UniProt P01215+P0DN86); test: Photoaffinity labeling of hCG with ABG-^125I-LHR^exo3; assay type: binding; conditions: for inhibition of photoaffinity labeling of hCG by ABG-^125I-LHR^exo3: 4 mM of nonlabeled peptide
T2 construct: purchased National Hormone and Pituitary Program
T2 sequence (P01215 25-116, other chains not shown): as the sequence (P01215 25-116) above
Experimental: A peptide mimic corresponding to the LHR exoloop 3 sequence of K^573 […]^583 (LHR^exo3) was synthesized, to which a Tyr residue was attached to the C-terminus for radioiodination. The N-terminus of the peptide was acetylated and the C-terminus amidated. NHS-ABG was synthesized as previously described and freshly dissolved in dimethyl sulfoxide to a concentration of 50 mM. The reagent was diluted in 0.1 M sodium phosphate (pH 7.5) to a concentration of 20 mM. The reagent solution was immediately used to derivatize receptor peptides. In the dark, […] of NHS-ABG was added to […] of receptor peptides in […] of 0.1 M sodium phosphate (pH 7.5), and the mixture was incubated for 30 minutes at 25° C. […] After 20 seconds, 7 μl of sodium metabisulfite (2.5 mg/ml) in 10 mM Na2 HPO4, pH 7.4, was introduced to terminate radioiodination. Derivatized and radioiodinated ABG-^exo3 I-LHR^exo3 solution was mixed with 60 μl of 16% sucrose solution in PBS and fractionated on Sephadex Superfine G-10 column (0.6×15 cm) using PBS.
(§1) The mixtures were incubated at 37° C. for 90 minutes in the dark, irradiated with Mineralight R-52 UV lamp for 3 minutes as previously described, and solubilized in 2% SDS, 100 mM dithiothreitol and 8 M urea. The samples were electrophoresed on 8-12% polyacrylamide gradient gels. Gels were dried on filter paper and exposed to an imaging screen overnight, which was scanned on a phosphoimager. Exoloop 3 was modeled.

[4] = target: T1, FSH; test: Photoaffinity labeling of FSH with ^125I-FSHR^9-40F13Bpa; assay type: binding; conditions: increasing concentrations of nonradioactive peptide
Experimental: In the dark, 30 μg of receptor peptides in 40 μl of 0.1 M sodium phosphate (pH 7.5). The mixture was incubated for 30 minutes at 25° C. […] After 20 seconds, 7 μl of sodium metabisulfite (2.5 mg/ml) in 10 mM Na2HPO4, pH 7.4, was introduced to terminate radioiodination.
as §1, with “with a” for “with”, “minutes,” for “minutes as previously described,”, “phosphoimager (Molecular Dynamics).” for “phosphoimager. Exoloop 3 was modeled.”
The FSH α and β subunits co-migrate on SDS-PAGE. To separate them on the gel FSH was deglycosylated with PNGase F and after it was photoaffinity labeled. Enzymatic cleavage was done by incubation of the labeled FSH complex with 20 or 50 units of PNGase F (New England BioLabs, Inc., MA) in 40 μl for 18 hours at 37° C. The samples were solubilized in SDS under the reducing condition and electrophoresed on 15% gel containing 9 M urea.

[5] = tested on: phospholipase A, phospholipase C, phospholipase D and urokinase; test: Labeling specificity of ABG-^125I-LHR^exo3 on other proteins; assay type: binding
Experimental: as §1

[6] = target: T3, human LH (Homo sapiens, UniProt P01215+P01229); test: Photoaffinity labeling of LH with ABG-^125I-LHR^exo3; assay type: binding; conditions: increasing concentrations of LH
T3 construct: purchased National Hormone and Pituitary Program
T3 sequence (P01215 25-116): as above
T3 sequence (P01229 21-141): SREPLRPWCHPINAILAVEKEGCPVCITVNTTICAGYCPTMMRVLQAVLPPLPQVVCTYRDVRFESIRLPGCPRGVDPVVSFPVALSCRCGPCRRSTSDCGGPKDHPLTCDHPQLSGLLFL
Experimental: The samples were processed.
as §1

[7] = target: T4, LHR (Homo sapiens, UniProt P22888); test: Inhibition of ^125I-hCG binding to cells stably expressing LHR; conditions: increasing concentrations of nonradioactive competitor
T4 construct: expressed in transfected cells
T4 sequence (P22888 27-699): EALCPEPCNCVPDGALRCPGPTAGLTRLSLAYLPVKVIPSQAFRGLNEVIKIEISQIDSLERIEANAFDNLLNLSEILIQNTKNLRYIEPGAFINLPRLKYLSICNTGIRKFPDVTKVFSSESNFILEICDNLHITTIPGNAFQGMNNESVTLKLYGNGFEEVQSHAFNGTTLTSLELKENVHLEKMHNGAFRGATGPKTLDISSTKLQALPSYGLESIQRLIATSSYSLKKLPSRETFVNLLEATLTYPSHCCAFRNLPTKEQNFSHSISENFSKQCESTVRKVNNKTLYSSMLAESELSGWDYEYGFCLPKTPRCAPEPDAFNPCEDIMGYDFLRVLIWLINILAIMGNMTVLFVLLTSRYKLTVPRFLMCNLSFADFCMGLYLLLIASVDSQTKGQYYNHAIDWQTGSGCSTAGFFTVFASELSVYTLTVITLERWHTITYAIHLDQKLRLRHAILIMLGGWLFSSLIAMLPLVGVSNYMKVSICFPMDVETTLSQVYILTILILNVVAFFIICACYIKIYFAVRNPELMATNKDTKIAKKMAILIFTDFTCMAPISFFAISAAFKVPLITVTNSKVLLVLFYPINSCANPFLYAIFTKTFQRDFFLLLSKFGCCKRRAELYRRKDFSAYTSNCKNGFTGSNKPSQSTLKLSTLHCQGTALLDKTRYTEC
Experimental: The cells were washed and bound radioactivity was measured.
The Kd values were determined by Scatchard plots. For intracellular cAMP assay, cells were washed twice with Dulbecco's modified Eagle's media and incubated in the media containing isobutylmethylxanthine (0.1 mg/ml) for 15 minutes. Increasing concentrations of hormone were then added and the incubation was continued for 45 minutes at 37° C. After removing the media, the cells were rinsed once with fresh media without isobutylmethylxanthine, lysed in 70% ethanol, freeze-thawed in liquid nitrogen, and scraped.

[8] = tested on: human LHR; test: Inositol phosphate assay, LHR exoloop 3 mutants in HEK 293 cells, hCG stimulated; assay type: cell-based; conditions: NS = not significant
Sequence of human LHR (P22888 27-363 limits assumed): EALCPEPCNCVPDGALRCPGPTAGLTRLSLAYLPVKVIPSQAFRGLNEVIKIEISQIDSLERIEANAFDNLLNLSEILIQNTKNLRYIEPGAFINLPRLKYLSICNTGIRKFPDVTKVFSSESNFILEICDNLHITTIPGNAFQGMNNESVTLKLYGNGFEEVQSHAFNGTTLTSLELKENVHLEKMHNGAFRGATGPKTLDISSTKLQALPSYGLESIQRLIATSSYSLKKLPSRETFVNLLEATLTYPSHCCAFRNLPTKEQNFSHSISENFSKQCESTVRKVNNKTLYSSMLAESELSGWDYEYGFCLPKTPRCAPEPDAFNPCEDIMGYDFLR
Experimental: Stable cells were plated in 12 well plates and grown in inositol free DMEM (Atlanta Biologicals) supplemented with 8% heat-inactivated horse serum and […] [^3H]inositol (NEN) for 48 hours to 40-50% confluency. After removing the medium, the cells were incubated in 1 ml of fresh wash buffer consisting of DMEM w/o inositol and 15 mM HEPES (pH 7.3) for 1 hour at 37° C. This medium was removed and 0.3 ml wash buffer containing 20 mM LiCl was added and incubated for 15 minutes at 37° C. After the cells were stimulated with increasing concentrations of hormone for 30 minutes at 37° C., the incubation was terminated by the removal of medium and the addition of 0.25 ml of 0.6 N HCl to each well. The cells were scraped, transferred into microcentrifuge tubes and the wells were again washed with 0.25 ml of 0.6 N HCl. The combined washes were treated with 0.9 ml of a mixture of chloroform:methanol (2:1), vortexed and centrifuged at 1000×g for 5 minutes at room temperature. The top aqueous layer, which was free of phospholipids, was removed and the remaining chloroform layer treated with 0.2 ml of methanol:water (1:1), vortexed and centrifuged, as above. This aqueous layer was added to the previous aqueous layer and the samples dried in a vacuum concentrator. […] Aliquots of 200 μl were counted for radioactivity in 1.5 ml of Ultima AF scintillation fluid (Packard). […]

Substance: FSHR^exo3: peptide mimic of FSHR exoloop 3, KVPLITVSKAK (SEQ ID NO: 3), C-terminal Tyr, N-acetylated, C-amidated (Ac-KVPLITVSKAKY-NH2)
- inhibition of ^125I-FSH binding to the receptor on intact cells [1]: inhibited ^125I-FSH binding to the receptor on intact cells in a dose dependent manner
- inhibition of photoaffinity labeling of FSH by ^125I-ABG-FSHR^exo3 [2]: inhibited the photoaffinity labeling in a dose dependent manner

Substance: FSHR^9-40: peptide mimic of FSH receptor sequence S9-K40, SNRVFLCQESKVTEIPSDLPRNAIELRFVLTK (SEQ ID NO: 2) (Ac-YSNRVFLCQESKVTEIPSDLPRNAIELRFVLTK-NH2; not fully specified (some residues); printed as S9NRVFLCQESKVTEIPSDLPRNAIELRFVLTK40)
- inhibition of photoaffinity labeling of FSH by ^125I-FSHR^9-40F13Bpa [4]: inhibited the photoaffinity labeling in a dose dependent manner
- inhibition of photoaffinity labeling of FSH by ^125I-ABG-FSHR^exo3 [2]: inhibited the photoaffinity labeling in a dose dependent manner

Substance: Wildtype: wild type human LH receptor expressed in HEK 293 cells (Table II)
- IP1 (cpm) [8]: 13,780-w cpm

Continued, in another order:

- inhibition of photoaffinity labeling of hCG by ABG-^125I-LHR^exo3 [3]: failed to inhibit the labeling
Substance: LHR^18-36: N-terminal peptide of the LHR exodomain (CPGPTAGLTRLSLAYLPVK)

- photoaffinity labeling of phospholipase A, phospholipase C, phospholipase D and urokinase [5]: not photoaffinity labeled
- hCG concentration at which the maximum labeling was reached ([3]; both hormone subunits, constant amount of probe): 50 nM
- photoaffinity labeling of denatured hCG ([3]; hCG boiled in 8 M urea): not labeled at all
Substance: ABG-^125I-LHR^exo3: LHR exoloop 3 peptide derivatized with N-hydroxysuccinimide of 4-azidobenzoyl glycine and radio-iodinated (Ac-KVPLITVTNSK(ABG)[Tyr(125I)]-NH2; also: derivatized with N-hydroxysuccinimide ester of 4-azidobenzoyl glycine, radio-iodinated (125I))
- labeled hCG subunits [3]: the a band labeled slightly more than the β band
- photoaffinity labeling of LH subunits [6]: Both of the α and β subunits of LH were labeled

- inhibition of photoaffinity labeling of hCG by ABG-^125I-LHR^exo3 [3]: blocked the labeling
- inhibition of ^125I-hCG binding to LHR [7]: inhibited ^125I-hCG binding to LHR
Substance: LHR^exo3: peptide mimic of LHR exoloop 3, KVPLITVTNSK, C-terminal Tyr, N-acetylated, C-amidated (Ac-KVPLITVTNSKY-NH2)
